Measured values published in the RNAGym collection of RNA variant scans (doi:10.7554/elife.80360).

B1: HDV Ribozyme (parent)
chain: GGCCGGCAUGGUCCCAGCCUCCUCGCUGGCGCCGGCUGGGCAACAUUCCGAGGGGACCGUCCCCUCGGUAAUGGCGAAUGGGACCCA

Variants of: B1
Assay: self-cleavage, relative activity (ratio to wild type); higher = more cleavage; co-transcriptional

Variant | self-cleavage
G52U A71U | 0.781
C61A C64A | 0.96
U27C C41A | 0.192
G34U C75G | 0.214
C24G U46G | 0
G5C C22U | 0.151
C18U C24G | 0.0665
C7A G17A | 0.0475
G76U C86G | 1.09
C24G A51G | 0.111
A16U C19G | 0
G40C U72C | 0.174
C64U | 0.995
U60G A77U | 0.237
G39A U72A | 0.133
U37G G52U | 0.198
G82U C85G | 0.446
U23A G55A | 0.969
U20G A45U | 0.138
C15U C22A | 0.113
C64A G80A | 0.611
G38A C86A | 0.247
G17C A42C | 0.0723
G25A A43C | 0

Variant | self-cleavage
G25U G68U | 0.225
A8G G74A | 0.256
C30U G73A | 0.277
A8C C61U | 0.643
C18U C84A | 0.573
U9C C57A | 1.09
G54U C66G | 0.882
C13A C21A | 0.158
G11U C57U | 0.282
C18U C33U | 0.463
C26G G54C | 0.782
A43G G74C | 0.0791
U37G U46A | 0
G6C C13A | 0
G1U G11U | 0.439
U37A A78G | 0.131
U65A C75G | 0.19
C24A G31A | 0.0332
G39U G73C | 0.3
U12A U47G | 0.262
C41A G80A | 0.389
C3U G50A | 0.682
G6C C33G | 0.185
A8C U65G | 0.985

Variant | self-cleavage
G29U G59U | 0.147
G25U U79G | 0.0426
A16U C18U | 0.427
G6U A77U | 0.158
G67U A77G | 0.489
C7G C63A | 0.172
A51G G81A | 0.285
A43C G54C | 0.403
G73U C86U | 0.448
U9C G50C | 0.886
G76C A78C | 0.192
C3G G52A | 0.702
U9G G35U | 0.653
G17A U27G | 0.485
C13U C41G | 0.739
C36U C86U | 0.712
G25A G68A | 0.179
C15A G55C | 0.482
C22A C44A | 0.151
G1U C3A | 0.654
C41A C84U | 0.388
C19U U27G | 0.237
C14U G76U | 1.14
G54A G55A | 1.29

Variant | self-cleavage
C18U | 0.732
G1U U20G | 0.285
C66G G80U | 0.116
C3A G76C | 0.604
G50U G67A | 0.959
C3A A70U | 0.437
G59A C66G | 1.11
U20A G55C | 0.0536
U12C C64A | 0.344
C7U A43G | 0.19
C44G C57A | 0.944
G53C C62U | 1.03
G35C G74A | 0.0779
U79C G82A | 0.133
C21A G80U | 0.0622
A45C C64A | 0.426
C7U A77G | 0.434
C36U U79G | 0.325
G40A G59U | 0.987
C44G U79C | 0.297
G40U C61U | 0.631
U12A C33U | 0.44
U46C C64U | 0.725
C36A C41U | 0.171

Variant | self-cleavage
U23A U79C | 0.369
A8G A42U | 0.317
G2U U60A | 0.0396
G54A G82C | 0.282
C30G C41G | 0.0707
C13A G81A | 0.16
C33G G73U | 0.138
C62G C66G | 0.249
G5A U65G | 0
U27C G59C | 0.751
G29A C86G | 0.138
C7A C62G | 0.0665
G2U G5C | 0
C32A G67A | 0.211
C57G C62G | 0.87
C36G A87U | 0.153
A51U C64U | 0.927
A56U G68A | 0.819
G52C G59C | 0.987
C26A C48U | 0.941
U23A G74A | 0.465
C26G C62G | 0.516
G17U G39C | 0.0755
U60G C84A | 0.752

Variant | self-cleavage
C26U C58G | 0.831
C4U G31A | 0.163
G40U G50A | 0.577
G52A G59U | 0.865
G38U U69C | 0.192
C24U C62U | 0.763
A56U U79C | 0.429
G50C U79C | 0.554
G35C A70U | 0.138
A70G U72C | 0.54
C41G G54A | 0.831
G2C C64A | 0.0652
A8C U60A | 0.831
A42C G74U | 0.0733
C22G A71G | 0.0573
C32G A45C | 0.0707
G31U G54A | 0.403
A43G G52U | 0.742
C36A G74U | 0.14
U46A C64G | 0.38
C48A G82U | 0.496
G40U A77G | 0.462
C66U G68C | 0.753
G1U C62U | 0.443

Variant | self-cleavage
C21U C48G | 0.181
C24G G29A | 0.188
G1C C21A | 0
C4U G76A | 0.443
C32U U65C | 0.91
C4G G35A | 0
U46A C49G | 0.415
A45U G52U | 0.674
C48U C61A | 0.87
A43C A56G | 0.404
G59C C75U | 0.233
A16C G28C | 0.119
A8C C58A | 0.692
G50C U79A | 0.739
G2C G50C | 0.0277
C13G U37G | 0
A8G C48G | 1.11
C33A G80C | 0.16
C30U A83G | 0.302
U12C G39A | 0.106
A56C C57U | 1.08
G6A C75U | 0.193
G2U C62A | 0.0166
